From US5811098, “Antibodies to HER4, human receptor tyrosine kinase” (Bristol-Myers Squibb Company, dated 1998)

T1: p45, HER4 ligand purified from HepG2 conditioned medium (human, UniProt Q02297, 125I-labeled Bolton-Hunter reagent (in the binding and cross-linking assays))
T1 sequence: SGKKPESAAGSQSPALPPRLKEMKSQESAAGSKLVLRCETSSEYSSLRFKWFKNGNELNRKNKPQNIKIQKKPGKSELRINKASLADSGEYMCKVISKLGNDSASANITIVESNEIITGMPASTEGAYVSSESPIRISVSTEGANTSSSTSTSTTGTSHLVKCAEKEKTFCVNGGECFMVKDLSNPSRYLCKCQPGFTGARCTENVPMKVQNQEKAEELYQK

B1: HER4/p180erbB4 (human prototype HER4) (receptor)
chain: QSVCAGTENKLSSLSDLEQQYRALRKYYENCEVVMGNLEITSIEHNRDLSFLRSVREVTGYVLVALNQFRYLPLENLRIIRGTKLYEDRYALAIFLNYRKDGNFGLQELGLKNLTEILNGGVYVDQNKFLCYADTIHWQDIVRNPWPSNLTLVSTNGSSGCGRCHKSCTGRCWGPTENHCQTLTRTVCAEQCDGRCYGPYVSDCCHRECAGGCSGPKDTDCFACMNFNDSGACVTQCPQTFVYNPTTFQLEHNFNAKYTYGAFCVKKCPHNFVVDSSSCVRACPSSKMEVEENGIKMCKPCTDICPKACDGIGTGSLMSAQTVDSSNIDKFINCTKINGNLIFLVTGIHGDPYNAIEAIDPEKLNVFRTVREITGFLNIQSWPPNMTDFSVFSNLVTIGGRVLYSGLSLLILKQQGITSLQFQSLKEISAGNIYITDNSNLCYYHTINWTTLFSTINQRIVIRDNRKAENCTAEGMVCNHLCSSDGCWGPGPDQCLSCRRFSRGRICIESCNLYDGEFREFENGSICVECDPQCEKMEDGLLTCHGPGPDNCTKCSHFKDGPNCVEKCPDGLQGANSFIFKYADPDRECHPCHPNCTQGCNGPTSHDCIYYPWTGHSTLPQHARTPLIAAGVIGGLFILVIVGLTFAVYVRRKSIKKKRALRRFLETELVEPLTPSGTAPNQAQLRILKETELKRVKVLGSGAFGTVYKGIWVPEGETVKIPVAIKILNETTGPKANVEFMDEALIMASMDHPHLVRLLGVCLSPTIQLVTQLMPHGCLLEYVHEHKDNIGSQLLLNWCVQIAKGMMYLEERRLVHRDLAARNVLVKSPNHVKITDFGLARLLEGDEKEYNADGGKMPIKWMALECIHYRKFTHQSDVWSYGVTIWELMTFGGKPYDGIPTREIPDLLEKGERLPQPPICTIDVYMVMVKCWMIDADSRPKFKELAAEFSRMARDPQRYLVIQGDDRMKLPSPNDSKFFQNLLDEEDLEDMMDAEEYLVPQAFNIPPPIYTSRARIDSNRSEIGHSPPPAYTPMSGNQFVYRDGGFAAEQGVSVPYRAPTSTIPEAPVAQGATAEIFDDSCCNGTLRKPVAPHVQEDSSTQRYSADPTVFAPERSPRGELDEEGYMTPMRDKPKQEYLNPVEENPFVSRRKNGDLQALDNPEYHNASNGPPKAEDEYVNEPLYLNTFANTLGKAEYLKNNILSMPEKAKKAFDNPDYWNHSLPPRSTLQHPDYLQEYSTKYFYKQNGRIRPIVAENPEYLSEFSLKPGTVLPPPPYRHRNTVV
B2: HAR-TX β2, chimeric heregulin-toxin protein (other)
chain: MVVKPPQNKTESENTSDKPKRKKKGGKNGKNRRNRSHLIKCAEKEKTFCVNGGECFTVKDLSNPSRYLCKCPNEFTGDRCQNYVMASFYKAEELYKLMAEEGGSLAALTAHQACHLPLETFTRHRQPRGWEQLEQCGYPVQRLVALYLAARLSWNQVDQVIRNALASPGSGGDLGEAIREQPEQARLALTLAAAESERFVRQGTGNDEAGAANADVVSLTCPVAAGECAGPADSGDALLERNYPTGAEFLGDGGDVSFSTRGTQNWTVERLLQAHRQLEERGYVFVGYHGTFLEAAQSIVFGGVRARSQDLDAIWRGFYIAGDPALAYGYAQDQEPDARGRIRNGALLRVYVPRSSLPGFYRTSLTLAGGEAAGEVERLIGHPLPLRLDAITGPEEEGGRLETILGWPLAERTVVIPSAIPTDPRNVGGDLDPSSIPDKEQAISALPDYASQPGKPPREDLK

Columns and labels:
[1] = target: T1, p45, HER4 ligand purified from HepG2 …; test: binding of 125I-p45 to CHO/HER4 cell monolayers, 2 h at 4° C, Scatchard analysis (LIGAND program)
HER2/p185erbB2 (human) = HER2/p185erbB2 (human) (human); test: cell-based or functional assay
HER3/p160erbB3 (human) = HER3/p160erbB3 (human) (human); test: cell-based or functional assay

| Binder | Kd [1] | EC50 of cytotoxicity, H3396 cells (HER2/p185erbB2 (human)) | EC50 of cytotoxicity, L2987 cells (HER2/p185erbB2 (human)) | EC50 of cytotoxicity, SK0V3 cells (HER2/p185erbB2 (human)) | EC50 of cytotoxicity, H3396 cells (HER3/p160erbB3 (human)) | EC50 of cytotoxicity, L2987 cells (HER3/p160erbB3 (human)) | EC50 of cytotoxicity, SK0V3 cells (HER3/p160erbB3 (human)) |
| --- | --- | --- | --- | --- | --- | --- | --- |
| B1 | ~5 nM | – | – | – | – | – | – |
| B2 | – | > 2000 ng/mL | > 2000 ng/mL | > 2000 ng/mL | > 2000 ng/mL | > 2000 ng/mL | > 2000 ng/mL |
